From PMC5421877, “SOCS3 inhibits the pathological effects of IL-22 in non-melanoma skin tumor-derived keratinocytes” (Oncotarget, 2017)

Tested on: SOCS3 expression in healthy keratinocytes
Experiment: SOCS3 mRNA and protein induction in healthy keratinocytes
Format: cell-based, human
Procedure: Figure 1 IL-22 induces SOCS3, which limits STAT3 and Erk1/2 activation (A) Keratinocyte cultures (n = 3) were stimulated with IL-22 or not for 10 min and protein lysates were subjected to immunoprecipitation and WB analyses for basal and phospho-IL-22R1, Tyk2 or Jak1. (B) WB of time-course experiments were performed on keratinocyte cultures (n = 3) to evaluate basal STAT3, Erk1/2 and MEK or phosphor-STAT3 (Tyr705 and Ser 727), phosphor-Erk1/2 and phospho-MEK. Anti-β-actin Ab was used to normalize sample loading. (C) SOCS mRNA and protein levels were detected by real-time PCR or WB analyses in cultured keratinocytes prepared from healthy skin (n = 3) left untreated or stimulated with IL-22 for the indicated time periods and normalized with β-actin values. (D) HaCaT cells stably transfected with myc-tagged SOCS1 (n = 4), SOCS2 (n = 2) and SOCS3 (n = 4) genes or control plasmids (mock, n = 3) were left untreated or stimulated with IL-22 for 15 min or 3 h and lysates subjected to WB with anti-phospho STAT3 (Tyr705), -phospho STAT3 (Ser727), -STAT3, -phospho Erk, -Erk, -c-myc and -β-actin Abs, as indicated. (E) Keratinocyte cultures were transiently transfected with siRNA specific for SOCS3 or control siRNA (NC). After 48-h transfection, cells were stimulated with IL-22 or not for the indicated time periods. In RNA interference experiments, data were obtained by three independent experiments, and SOCS3 depletion was assessed by real-time PCR and WB. […] Data are expressed as ratio of densitometric intensity (D. I.) of phosphorylated and unphosphorylated STAT3 and Erk1/2 proteins. p < 0.05 (*) values were considered significant.
Figure 4 SOCS3 and SOCS1 are poorly expressed in the epidermis of NMSC lesions and are not induced in transformed keratinocytes by IL-22 (A) Immunohistochemistry for SOCS3 and SOCS1 (red staining) was performed respectively on frozen or paraffin-embedded sections from biopsies of healthy skin (i), NLS (ii, iii) and LS (iv, v) areas of BCC and SCC, specimens. Psoriatic skin biopsies were also analyzed (vi). Sections were counterstained with Mayer's H&E and were visually evaluated by an pathologist experienced in dermatology. […] (B) Graphs show SOCS3 and SOCS1 mRNA levels which were detected by real-time PCR analysis in cultured SCC (CAL27 and CAL33) and BCC (M77015) skin tumor lines left untreated or stimulated with IL-22 or IFN-γ for 3 h and normalized for β-actin mRNA expression levels. […] SOCS1 was detected by IP using a specific anti-SOCS1 Ab, whereas SOCS3 by WB with an anti-SOCS3 Ab. […] Densitometric intensity (D.I.) of SOCS1 or SOCS3/β-actin was calculated from three independent experiments and numerically expressed as D. I. Ratio. *p < 0.01; **p < 0.05. […] SOCS3 and phospho-Tyr STAT3 levels were detected by WB and normalized to β-actin levels. […]

B1: IL-22: cytokine stimulus, R&D Systems (protein, UniProt Q9GZX6 34-179, looked up)
Interleukin-22: APISSHCRLDKSNFQQPYITNRTFMLAKEASLADNNTDVRLIGEKLFHGVSMSERCYLMKQVLNFTLEEVLFPQSDRFQPYMQEVVPFLARLSNRLSTCHIEGDDLHIQRNVQKLKDTVKKLGESGEIKAIGELDLLFMSLRNACI
Question: For B1, which “time of peak SOCS3 protein induction” value (IL-22 time course, WB, n = 3) is on record?
Answer: The value was 3 h.

Question: What about the “time of peak SOCS3 mRNA induction” value (IL-22 time course, real-time PCR, n = 3) of the same molecule?
Answer: Its value is 1 h.

Question: What about the “SOCS3 mRNA and protein expression” value (healthy keratinocytes, 3 h mRNA, 6 h protein) of the same molecule?
Answer: The value was “significantly induced mRNA and protein expression of SOCS3 in healthy keratinocytes”.
